According to patent US10328136:

Molecular target: nectin-1 (human) (UniProt Q15223)
Assay: cell-based or functional assay

Sequence of UniProt Q15223 (Q15223 31-517): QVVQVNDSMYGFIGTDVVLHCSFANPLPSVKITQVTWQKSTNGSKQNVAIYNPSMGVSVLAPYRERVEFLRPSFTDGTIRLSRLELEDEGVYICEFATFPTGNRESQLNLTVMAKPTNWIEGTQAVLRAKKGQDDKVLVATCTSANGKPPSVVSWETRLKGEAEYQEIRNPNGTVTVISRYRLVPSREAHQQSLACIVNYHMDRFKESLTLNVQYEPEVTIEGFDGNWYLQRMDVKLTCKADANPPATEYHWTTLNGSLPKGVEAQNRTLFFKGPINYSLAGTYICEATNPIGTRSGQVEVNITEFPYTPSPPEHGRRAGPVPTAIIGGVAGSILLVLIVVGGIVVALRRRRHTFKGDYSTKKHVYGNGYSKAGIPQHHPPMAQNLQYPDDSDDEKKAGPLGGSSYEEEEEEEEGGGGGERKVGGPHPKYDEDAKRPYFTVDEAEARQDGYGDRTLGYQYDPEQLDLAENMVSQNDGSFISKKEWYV

Question: Which entry of QOZHG into J/C cells (X-gal staining at 24 hpi, MOI=10) does the source give for “wild-type glycoprotein D (gD) of HSV-1 strain KOS” here?
Answer: 100%
